Measurements as given in PMC4482071.

Target: Aspergillus nidulans (An) Rpf2 (Aspergillus nidulans)
Experiment: SEC; size exclusion chromatography of the An Rpf2-Rrs1 complex in solution; conditions not given (preparation in ref. 22)

stoichiometry N: 1
Substance: Aspergillus nidulans (An) Rrs1 (natural protein)
